We go through one substance from article PMC1533836.

This test has as its target APNAnq 100 (100-kDa aminopeptidase N from Anopheles quadrimaculatus brush border membrane) (Anopheles quadrimaculatus). The test can be described thus: SPR. (SPR reads the build-up and loss of mass on a sensor chip optically.)

By koff is commonly meant the first-order rate constant of dissociation. Read a low koff as a long-lived complex. A word on the kon: it is the second-order rate constant of association. A high value points to faster complex formation. For “Bacillus thuringiensis Cry11Ba toxin (trypsin-activated) (from UniProt Q45730 1-724) (natural protein)”, the koff came to 1.03e-07 s⁻¹ and the on-rate constant (kon) was found to be 184 M⁻¹ s⁻¹.
